B1: Hubei picorna-like virus 2 (nucleic acid)
DNA: AGCAACTTCTTTCTGAAAACTAGCTAGAGTTCGACGATCTCTCTGGCTAATGACAAATAACCAATCAAAAAGTCAAATGTTCATGTATATATATATTTAGTAGTGACCTTTATTTAGAAAAACTTTAGATGATTTATCGTCAAGTTGCCCTTTGTGAAGCGATCAGCTTTTTATATCGTTTCATTTTTGTATACGTCTTAATTGACGTTGTAAGTACGTTTTGCATACCTCACATTGAGGATAGTATCGTTTCCTGACTAAGAAGTTAAACTAGTCTACCAATAGCAACCATATAGGATATAGCTTTGTTTTTAACAAGGTTTAATCTGATCTTATGCTCTTGCTTACGGTGTTTTATGTATAGAAAAGTTTTTATAAAAACTACATAATTGTCAAAAGAAAAAGCGTTACGTACTGACGCATTTATGTTCACAGTGTGACACAAACCTTCTATATTTTGATTGTAAAATAGGCTTTGCCTGACCATTTATCAAATACAAACTGTTTCAAACGCCTCTCCGAGCCATATTGGCCGACGCGAATCGACATAACAGGGTGAGTTTACAGCTGCAGTTGCAGCCGAGGATCCACTTATTTGAGAGAGAATTACTCTTAACGAAATTTTGAAGTCACTTCTACACAGTTAAGTCTGAGTAGGCGTTATCCAAACGTAAA
modifications: source: /note="Description of Unknown: Hubei picorna-like virus 2 sequence"
B2: Hubei sobemo-like virus 3 (nucleic acid)
DNA: GAGATGTTTGCGTGGGCCGTTGCGCTGCGGGCGGCCCACCTCCCTACGGGGACCGTGAGACACCGCTGGGGAAGGCCCCCACCCCCGGCCAAGGGGATCCTGCCGAGAGGCAGGAGAAAGAGGCCCAGCCCTCTGGGGCGCCTTTAGGGGTGCCTGGGAGGGAAGTACCCGAGCCGGGCGGCCGGTCGGGTGCGGCTGTGCAGTTCGAGGCTAACCGTAAGGAAGGCCTGAGCTGCCTCGGCTTGTCGGAAAGGAAGACGAAGGCACTTATCAAGGCTTTCAGGAAGCAGGAGCGCAATTACAGCGCGCGCCGTGCGGCCTGGATTAACCGCATTTGGCCG
modifications: source: /note="Description of Unknown: Hubei sobemo-like virus 3 sequence"
B3: Hubei tombus-like virus 32 (nucleic acid)
DNA: TTCGGGTTTACCCGCGTAAGCGGCCACACTGACTGGTTGTCGGTGTTGAATTTGTATACCAGATGAGGAGACGTTACCACCGTCTCGGCAGTGCTACGTCTGGGAAAGGACTGTGATAGTGGACAGTCCTACCGTCTTTAGATACATTGCGTTGTGTATAGCCCGGGAGGGATTAACTAATAGCAACGCAATGCACACGGCGGTTCGGATTTGCTTGACTGATGGAAAGACATCTAAGTTCTAATTGAACC
modifications: source: /note="Description of Unknown: Hubei tombus-like virus 32 sequence"
B4: Hepacivirus P (nucleic acid, listed as Hepacivirus sp.)
DNA: ACATGGGGGGGGGCTGACAGTGAGTACACTGTGCCAAGCAGGTGCTACGCTATGCCTAGGTGCTGCTGTAGGCCAAGGACATGTCCCAGTCATCCCAGGTGAGGGGGGGGGTTCCCCTCACCGCTGCCACTGCCTGATAGGGTCCTGCCGGAGGGTCTCGGTGTCCGGCTGTAC
B5: Hubei tombus-like virus 9 (nucleic acid)
DNA: GGACCATCCAGGCAGGTGTAGGCTAGTACCCTCACCTGACCTGTCGCGATGTTTGGCTTTGTGAGGCTTGTGGGAGGATCCCTTGGCCCATGCATTGCTGCTGTCATCGTGAAAAATGTTGTATGCTCGCACCTGGCGTGGAGGAAACGGCATTTGACGGATGCTAAGGAGGATTTGAAGGTCCTCAACTCCCATGCCTTATTACAAGTCCCCTTTCCTTCAAGCTTCGAGCCCACGTCTGTGACGAGCAGAGGTGAGGTTGGAGTCAAGAGGAGTCCTATTCAAGCTGTTCGCAGCAAGAACCATAAAACTTTCATTGCTCAATGGGCAAGAGCGGCTAAGGCTCGGTTCTCGTTTGCACGACAGTGTGAGCGGAGCCCTGTAAATGTCGCGGCCCTTCATCGGTGGTTTGCATCGGAGTTTAAGAAAATTGGCATGAACTTGCTCCAGGTTTCGTACGTGATCGATGAGGTTGTTGAACTTAGTTTGGAACCAACGTATGAGCGTATGGTGTCCGAAACTAAGAAGCAATTCCGTCATCGGGCACGTATGGAATACTACAACGAGAAAAAATGCCTTGAAAAGATCCACTAGGAACGC
modifications: source: /note="Description of Unknown: Hubei tombus-like virus 9 sequence"
B6: Harrier picornavirus 1 (nucleic acid)
DNA: GATGTGTGACGGTGTAATTACTTTCCGGATCCCACTTTCCTATTATAACTCTTTCATCCCAAGGTTAGGGAAAGAACCTGGCTCGGTACCACCAGACCCTCCGCCACGCTAGTGGACTCTCCGGAGATAACGGTACCCCCTTTGTAGTCACCTGTGCTGGTGAAGAACCACCTAGTATTGCTTGGGTGCGTGCCGCCTAGCTTCCATTTCTTCTGGAGCACTGTGCAATGAGGTTTCCCCACTTGGTAACAAGTGCCTCAGGTCCCGCAAGGATACTGTGGGGTGGTGTGACCGCAGGGAGCTGTCTCCACGGCTCCTCTAATGTTACGCCGCTATCCACAGGCCAGTGCGTGTCATCGATCCCGGATGACAGAGCTAGTATTGCGAACCCCCAAGTAAGAAAAGTGGCTAGTAACCTGATAGCTGGTGAAGAGGGTGGGTCAGTTGAGTAGATGCCCTAGAGGTACCCGAAAGGATCTGACTAGGGACCCGTGACTATACATTAGGTAAACCGGGTATAAAAACCATGAAAAACTGACCACTTTTCTTTTAACCTCTTCTTTCTTTTTATGTGTGTTAAGTGTTTTGAGTTTGGACTGTACCTTGCCCGCCTTTCTTGGATTTTCTCTATCGCTCTTCTTACACCTACTGTTATCAAGGCACTCTTTAGAGATA
modifications: source: /note="Description of Unknown: Harrier picornavirus 1 sequence"
B7: Kashmir bee virus: "an IRES is an IRES sequence of ... Kashmir bee virus" (nucleic acid)
DNA: TACGTACAATTTTGACGCTTCGTTCATGCAACAATGAACTCACATGTGGCGCTCGGTAGTAACCAGAGGGGCGTCATTCCCCCGTATGGAGTGGAGAATATAAGCTACCGACTCGAGCTGTAGAATAATTCAGCAACTTATAACGAACACGAATTTTAGTCGACGAAACCATTTTAGCCTTTAATTCTATGATTTGATTATAATGATAAACAGCTCATGTAACTGTCTAAACTACATAAATACAACTGGATTACGAACCTTTAAGTAACTATCTTAGATGAAGTCTAGTAGTCTCCCAATATTTCCGTGAAAAGAATGAGGGACGAGATAGCTCTATTTAAAGACGTGAGGCTTTAAATTCTGATAAATACATTACCTGAGAATTCCTCCTTTAGGAGTTAGAATTTGAAAAGATTAGTACCTATACTTAATAGAATTTAAATATGTTAATAATGCTGAAGACAAGTATTTCGATTATTAACCTCTATATTTCTATATAAAGTATCTGTGAGTCTCAGTGGACATCACAGTAAGGTCGCAGTTAACTTGTAATCTTTTCATTCCTGTGTCGGAGCAGTGGTAATGGAGCCGGACGATTTCGCCAAAAC
modifications: Kashmir bee virus

What follows are molecules tested on HEK293 cells. Conditions: circular RNA encoding Gluc with the listed IRES (UTR truncated to 675 nt) transfected into HEK293 cells; supernatant after 24 hours.
Format: cell-based, human

Molecule | Expression (luminescence from secreted Gluc protein)
B1 | 1.95E+05
B2 | 1.17E+05
B3 | 9.23E+04
B4 | 6.04E+05
B5 | 9.28E+04
B6 | 1.47E+05
B7 | 1.65E+05
